Test results published in patent publication US20210275641A1 (SYNTHEKINE, published 2021).
Changes are numbered by the printed parent chain. Numbers in names are those of the source.

T1: human high affinity trimeric IL-2 receptor (CD25/CD122/CD132) (human, UniProt P01589 22-272; P14784 27-551; P31785 23-369)
T1 sequence 1: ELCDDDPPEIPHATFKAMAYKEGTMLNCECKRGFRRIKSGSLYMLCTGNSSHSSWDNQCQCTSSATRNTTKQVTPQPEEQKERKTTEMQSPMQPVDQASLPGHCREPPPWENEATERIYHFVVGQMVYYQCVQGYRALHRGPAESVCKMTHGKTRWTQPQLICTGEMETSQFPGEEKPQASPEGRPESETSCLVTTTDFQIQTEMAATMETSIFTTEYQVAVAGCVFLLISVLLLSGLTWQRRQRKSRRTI
T1 sequence 2: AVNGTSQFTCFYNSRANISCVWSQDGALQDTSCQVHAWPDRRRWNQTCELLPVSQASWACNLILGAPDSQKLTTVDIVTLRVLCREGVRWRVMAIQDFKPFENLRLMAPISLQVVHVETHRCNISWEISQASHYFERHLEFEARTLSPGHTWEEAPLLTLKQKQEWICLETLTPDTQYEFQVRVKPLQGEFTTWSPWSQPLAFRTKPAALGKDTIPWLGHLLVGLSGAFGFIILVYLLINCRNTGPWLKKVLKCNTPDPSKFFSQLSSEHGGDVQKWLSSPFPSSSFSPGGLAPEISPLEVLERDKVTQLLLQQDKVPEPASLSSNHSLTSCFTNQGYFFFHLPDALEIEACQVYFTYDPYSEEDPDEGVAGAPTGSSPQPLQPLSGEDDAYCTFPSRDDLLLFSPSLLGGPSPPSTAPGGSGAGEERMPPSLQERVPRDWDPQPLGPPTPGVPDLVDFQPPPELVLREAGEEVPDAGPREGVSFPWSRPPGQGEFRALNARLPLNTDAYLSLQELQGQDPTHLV
T1 sequence 3: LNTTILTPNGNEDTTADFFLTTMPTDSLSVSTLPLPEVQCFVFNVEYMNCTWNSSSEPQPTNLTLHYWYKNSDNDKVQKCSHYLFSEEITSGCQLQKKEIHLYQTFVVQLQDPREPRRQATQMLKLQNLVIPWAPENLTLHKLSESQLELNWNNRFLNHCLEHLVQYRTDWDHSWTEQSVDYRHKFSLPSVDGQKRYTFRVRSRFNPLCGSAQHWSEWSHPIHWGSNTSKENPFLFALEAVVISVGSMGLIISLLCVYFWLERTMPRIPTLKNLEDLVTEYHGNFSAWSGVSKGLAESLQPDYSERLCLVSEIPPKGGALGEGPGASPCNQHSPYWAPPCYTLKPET

T2: IL-2 receptor of the human CD4 positive T cell clone 3F8 (expresses CD25 and CD122) (human, UniProt P01589 22-272; P14784 27-551)
T2 sequence 1: T1 sequence 1
T2 sequence 2: T1 sequence 2

B1: AEH (ligand)
cytokine: APTSSSTKKTQLQLEHLALDLEMILNGINNYKNPKLTRMLTFKFYMPKKATELKHLQCLEEELKPLEEVLNLAQSKNFHLRPRDLISNINVIVLELKGSETTFMCEYADETATIVEFLNRWITFCHSIISTLT
B2: RTH (ligand)
cytokine: B1 cytokine with A18R, E22T
B3: hIL2 mutein REK (L18R, Q22E, Q126K) (ligand)
chain: B1 cytokine with A18R, H126K
B4: RNH (ligand)
cytokine: B1 cytokine with A18R, E22N
B5: RDH (ligand)
cytokine: B1 cytokine with A18R, E22D
B6: RRH (ligand)
cytokine: B1 cytokine with A18R, E22R
B7: GEH (ligand)
cytokine: B1 cytokine with A18G
B8: hIL2 mutein REE (L18R, Q22E, Q126E) (ligand)
chain: B1 cytokine with A18R, H126E
B9: MEH (ligand)
cytokine: B1 cytokine with A18M
B10: hIL2 mutein REV (L18R, Q22E, Q126V) (ligand)
chain: B1 cytokine with A18R, H126V
B11: hIL2 mutein REN (L18R, Q22E, Q126N) (ligand)
chain: B1 cytokine with A18R, H126N
B12: hIL2 mutein REF (L18R, Q22E, Q126F) (ligand)
chain: B1 cytokine with A18R, H126F
B13: hIL2 mutein RER (L18R, Q22E, Q126R) (ligand)
chain: B1 cytokine with A18R, H126R
B14: hIL2 mutein REL (L18R, Q22E, Q126L) (ligand)
chain: B1 cytokine with A18R, H126L
B15: hIL2 mutein REM (L18R, Q22E, Q126M) (ligand)
chain: B1 cytokine with A18R, H126M
B16: hIL2 mutein EEK (L18E, Q22E, Q126K) (ligand)
chain: B1 cytokine with A18E, H126K
B17: hIL2 mutein VEK (L18V, Q22E, Q126K) (ligand)
chain: B1 cytokine with A18V, H126K
B18: hIL2 mutein IEK (L18I, Q22E, Q126K) (ligand)
chain: B1 cytokine with A18I, H126K
B19: hIL2 mutein HEK (L18H, Q22E, Q126K) (ligand)
chain: B1 cytokine with A18H, H126K
B20: hIL2 mutein REY (L18R, Q22E, Q126Y) (ligand)
chain: B1 cytokine with A18R, H126Y
B21: hIL2 mutein AEK (L18A, Q22E, Q126K) (ligand)
chain: B1 cytokine with H126K
B22: hIL2 mutein RTK (L18R, Q22T, Q126K) (ligand)
chain: B1 cytokine with A18R, E22T, H126K

Target: T1, human high affinity trimeric IL-2 …
Assay: cell-based or functional assay

Compared with B1, B3 is lower in “pSTAT5 ratio YT CD25/YT, dilution factor 2, upper table” value: 1.3 for the first, 1.1 for the second.

First: B7
Second: B8
The “pSTAT5 ratio YT CD25/YT, dilution factor 2, upper table” value of the first is higher: 1.5 for the first, 1.4 for the second.

For B9, the “pSTAT5 ratio YT CD25/YT, dilution factor 2, upper table” value was 0.9.

Going from B1 to B3, the “pSTAT5 ratio YT CD25/YT, dilution factor 4, upper table” value falls from 2.6 to 1.6.

Going from B7 to B8, the “pSTAT5 ratio YT CD25/YT, dilution factor 4, upper table” value falls from 3.5 to 2.9.

B9 was tested, and the “pSTAT5 ratio YT CD25/YT, dilution factor 4, upper table” value was 1.2.

Going from B1 to B3, the “pSTAT5 ratio YT CD25/YT, dilution factor 8, upper table” value falls from 5.7 to 2.6.

Going from B7 to B8, the “pSTAT5 ratio YT CD25/YT, dilution factor 8, upper table” value falls from 7.2 to 5.9.

With B9 the “pSTAT5 ratio YT CD25/YT, dilution factor 8, upper table” value was 1.2.

First: B1
Second: B3
The “pSTAT5 ratio YT CD25/YT, dilution factor 16, upper table” value of the first is higher: 9.7 for the first, 4.8 for the second.

Going from B7 to B8, the “pSTAT5 ratio YT CD25/YT, dilution factor 16, upper table” value falls from 13.2 to 10.1.

With B9 the “pSTAT5 ratio YT CD25/YT, dilution factor 16, upper table” value was 1.4.

Going from B1 to B3, the “pSTAT5 ratio YT CD25/YT, dilution factor 32, upper table” value falls from 14.1 to 7.7.

First: B7
Second: B8
The “pSTAT5 ratio YT CD25/YT, dilution factor 32, upper table” value of the first is higher: 16.2 for the first, 13.5 for the second.

With B9 the “pSTAT5 ratio YT CD25/YT, dilution factor 32, upper table” value was 1.8.

Compared with B1, B3 is lower in “pSTAT5 ratio YT CD25/YT, dilution factor 64, upper table” value: 16.6 for the first, 11.8 for the second.

First: B7
Second: B8
The “pSTAT5 ratio YT CD25/YT, dilution factor 64, upper table” value of the first is higher: 17.5 for the first, 15.3 for the second.

B9 was tested, and the “pSTAT5 ratio YT CD25/YT, dilution factor 64, upper table” value was 2.7.

Going from B1 to B3, the “pSTAT5 ratio YT CD25/YT, dilution factor 128, upper table” value falls from 17.9 to 13.1.

Going from B7 to B8, the “pSTAT5 ratio YT CD25/YT, dilution factor 128, upper table” value falls from 18.8 to 16.8.

With B9 the “pSTAT5 ratio YT CD25/YT, dilution factor 128, upper table” value was 4.5.

Going from B2 to B4, the “pSTAT5 ratio YT CD25/YT, dilution factor 2, lower table” value falls from 2.3 to 2.1.

First: B5
Second: B6
The “pSTAT5 ratio YT CD25/YT, dilution factor 2, lower table” value of the first is lower: 1.7 for the first, 2.3 for the second.

Going from B2 to B4, the “pSTAT5 ratio YT CD25/YT, dilution factor 4, lower table” value rises from 1.9 to 2.

First: B5
Second: B6
The “pSTAT5 ratio YT CD25/YT, dilution factor 4, lower table” value of the first is lower: 1.8 for the first, 2.8 for the second.

B2 and B4 are the same in “pSTAT5 ratio YT CD25/YT, dilution factor 8, lower table” value: 2.6 for the first, 2.6 for the second.

Compared with B5, B6 is higher in “pSTAT5 ratio YT CD25/YT, dilution factor 8, lower table” value: 2.1 for the first, 3.8 for the second.

B2 and B4 are the same in “pSTAT5 ratio YT CD25/YT, dilution factor 16, lower table” value: 3.6 for the first, 3.6 for the second.

First: B5
Second: B6
The “pSTAT5 ratio YT CD25/YT, dilution factor 16, lower table” value of the first is lower: 2.2 for the first, 6.5 for the second.

Going from B2 to B4, the “pSTAT5 ratio YT CD25/YT, dilution factor 32, lower table” value falls from 5.4 to 5.2.

Going from B5 to B6, the “pSTAT5 ratio YT CD25/YT, dilution factor 32, lower table” value rises from 2.9 to 10.3.

Going from B2 to B4, the “pSTAT5 ratio YT CD25/YT, dilution factor 64, lower table” value falls from 9.1 to 7.7.

First: B5
Second: B6
The “pSTAT5 ratio YT CD25/YT, dilution factor 64, lower table” value of the first is lower: 4.4 for the first, 14.6 for the second.

Compared with B2, B4 is lower in “pSTAT5 ratio YT CD25/YT, dilution factor 128, lower table” value: 14.3 for the first, 13 for the second.

First: B5
Second: B6
The “pSTAT5 ratio YT CD25/YT, dilution factor 128, lower table” value of the first is lower: 7 for the first, 19 for the second.

Target: T2, IL-2 receptor of the human CD4 positive …
Assay: cell-based or functional assay

First: B10
Second: B11
The “IFNγ Production IC50 (pM), 3F8 cells” value of the first is higher: 21.2 pM for the first, 15.7 pM for the second.

First: B12
Second: B3
The “IFNγ Production IC50 (pM), 3F8 cells” value of the first is higher: 38.3 pM for the first, 17.7 pM for the second.

Compared with B13, B14 is higher in “IFNγ Production IC50 (pM), 3F8 cells” value: 13.1 pM for the first, 33.8 pM for the second.

Going from B15 to B16, the “IFNγ Production IC50 (pM), 3F8 cells” value rises from 12.7 pM to 58.7 pM.

First: B17
Second: B18
The “IFNγ Production IC50 (pM), 3F8 cells” value of the first is lower: 4.6 pM for the first, 8.8 pM for the second.

First: B19
Second: B8
The “IFNγ Production IC50 (pM), 3F8 cells” value of the first is higher: 30.4 pM for the first, 18.4 pM for the second.

First: B20
Second: B21
The “IFNγ Production IC50 (pM), 3F8 cells” value of the first is higher: 22.1 pM for the first, 19 pM for the second.

First: B10
Second: B11
The “Proliferation IC50 (pM), 3F8 cells” value of the first is higher: 20.8 pM for the first, 13.7 pM for the second.

First: B12
Second: B3
The “Proliferation IC50 (pM), 3F8 cells” value of the first is higher: 37.6 pM for the first, 14.2 pM for the second.

First: B13
Second: B14
The “Proliferation IC50 (pM), 3F8 cells” value of the first is lower: 13.1 pM for the first, 68.4 pM for the second.

Compared with B15, B16 is higher in “Proliferation IC50 (pM), 3F8 cells” value: 32.6 pM for the first, 36 pM for the second.

Compared with B17, B18 is lower in “Proliferation IC50 (pM), 3F8 cells” value: 15.5 pM for the first, 10 pM for the second.

Going from B19 to B8, the “Proliferation IC50 (pM), 3F8 cells” value rises from 20.9 pM to 33 pM.

First: B20
Second: B21
The “Proliferation IC50 (pM), 3F8 cells” value of the first is higher: 19.3 pM for the first, 13.7 pM for the second.

For B22, the “Proliferation IC50 (pM), 3F8 cells” value was 62.8 pM.
